The source of these data is the supplement of paper PMC7877785.

The data set can be described thus: self-splicing fitness, log relative to wild type (ln ratio); higher = more splicing; Tetrahymena group I intron in knt gene, E. coli kanamycin selection, DiMSum; sequences stand for … in CUCUCU…GGAGGGAAAAGUUAUCAGGCAUGCACCUGGUAGCUAGUCUUUAAACCAAUAGAUUGCAUCGGUUUAAAAGGCAAGACCGUCAAAUUGCGGGAAAGGGGUCAACAGCCGUUCAGUACCAAGUCUCAGGGGAAACUUUGAGAUGGCCUUGCAAAGGGUAUGGUAAUAAGCUGACGGACAUGGUCCUAACCACGCAGCCAAGUCCUAAGUCAACAGAUCUUCUGUUGAUAUGGAUGCAGUUCACAGACUAAAUGUCGGUCGGGGAAGAUGUAUUCUUCUCAUAAGAUAUAGUCGGACCUCUCCUUAAUGGGAGCUAGCGGAUGAAGUGAUGCAACACUGGAGCCGCUGGGAACUAAUUUGUAUGCGAAAGUAUAUUGAUUAGUUUUGGAGUACUCGUGGUCG
Put shortly: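 Colonies from six replicate transformations of E. coli BL21(DE3) were pooled and amplicon-sequenced on an Illumina HiSeq 2500. The library placed an intron with all eight P1ex-region nucleotides randomised inside the knt kanamycin-resistance gene on pET-22b(+), and cells grew overnight at 37°C or 30°C on LB agar with or without 25 μg/mL kanamycin (plus 100 μg/mL carbenicillin, 50 μM IPTG, 0.2% rhamnose). Fitness is the DiMSum error-weighted combination of wild-type-normalised replicate fold changes, kanamycin versus none.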

± gives the uncertainty stated by the source.

On to AUUUAGCAAUAUUACGAUAC, for which the “self-splicing fitness (ln)” value by setting is: (30 °C) -2.44 ± 0.17; (37 °C) -1.01 ± 0.25.
Consider AUAAAGCAAUAUUACGGUAA, for which the “self-splicing fitness (ln)” value was -1.21 ± 0.077 (30 °C) and -0.709 ± 0.09 (37 °C).
Take UCGCAGCAAUAUUACGAGAU: the “self-splicing fitness (ln)” value was -3.01 ± 0.25 (30 °C) and -1.86 ± 0.25 (37 °C).
UGACAGCAAUAUUACGACCA: the “self-splicing fitness (ln)” value is -0.143 ± 0.1 (30 °C) and 0.216 ± 0.15 (37 °C).
For GGCGAGCAAUAUUACGAGAG, the “self-splicing fitness (ln)” value is, setting by setting: (30 °C) -3.79 ± 0.39; (37 °C) -2.54 ± 0.33.
Take AGAAAGCAAUAUUACGCUUA: the “self-splicing fitness (ln)” value was -1.63 ± 0.11 (30 °C) and -0.632 ± 0.087 (37 °C).
Take CACCAGCAAUAUUACGACCC: the “self-splicing fitness (ln)” value is, setting by setting: (30 °C) -3.82 ± 0.25; (37 °C) -2.98 ± 0.28.
Regarding GGGGAGCAAUAUUACGCCAC, the “self-splicing fitness (ln)” value is -3.28 ± 0.27 (30 °C) and -3.39 ± 0.39 (37 °C).
For GCAUAGCAAUAUUACGGCAU the same measures were -1.21 ± 0.096 and -1.19 ± 0.083.
For AAGUAGCAAUAUUACGUUCG, the “self-splicing fitness (ln)” value reads like this: (30 °C) -1.35 ± 0.13; (37 °C) -0.681 ± 0.17.
Take GAACAGCAAUAUUACGUGUA: the “self-splicing fitness (ln)” value is -1.58 ± 0.062 (30 °C) and -0.438 ± 0.069 (37 °C).
Consider AGUCAGCAAUAUUACGAUCC, for which the “self-splicing fitness (ln)” value (30 °C) was determined as 0.284 ± 0.16 and the “self-splicing fitness (ln)” value (37 °C) worked out at 0.198 ± 0.23.
For CCGCAGCAAUAUUACGUGAC the same measures were -4.7 ± 0.39 and -1.96 ± 0.26.
On to AGACAGCAAUAUUACGGAAC, for which the “self-splicing fitness (ln)” value (37 °C) was -1.4 ± 0.22.
As to GGACAGCAAUAUUACGAUUG, the “self-splicing fitness (ln)” value by setting is: (30 °C) -1.09 ± 0.12; (37 °C) -1.15 ± 0.19.
Turning to AAGUAGCAAUAUUACGUUAC, the “self-splicing fitness (ln)” value is -3.59 ± 0.3 (30 °C) and -2.71 ± 0.29 (37 °C).
For the sequence GUUUAGCAAUAUUACGACGA, the “self-splicing fitness (ln)” value runs as follows: (30 °C) -0.271 ± 0.17; (37 °C) -0.957 ± 0.24.
Taken in the same sequence, the figures for AAGUAGCAAUAUUACGCCGG were -3.7 ± 0.3 and -1.59 ± 0.18.
As to AGAGAGCAAUAUUACGACCG, the “self-splicing fitness (ln)” value (30 °C) was -2.92 ± 0.4.
For ACCGAGCAAUAUUACGAUAA, the “self-splicing fitness (ln)” value reads like this: (30 °C) -3.72 ± 0.23; (37 °C) -2.01 ± 0.2.
Consider GGCUAGCAAUAUUACGAGGG, for which the “self-splicing fitness (ln)” value was -2.39 ± 0.21 (30 °C) and -2.27 ± 0.42 (37 °C).
In the case of CCAGAGCAAUAUUACGCCGA, the “self-splicing fitness (ln)” value is -2.35 ± 0.28 (30 °C) and -2.65 ± 0.44 (37 °C).
Turning to UAGCAGCAAUAUUACGCUUG, the “self-splicing fitness (ln)” value (30 °C) was -2.3 ± 0.18 and the “self-splicing fitness (ln)” value (37 °C) was -0.988 ± 0.19.
For CGUAAGCAAUAUUACGUUCA, the “self-splicing fitness (ln)” value by setting is: (30 °C) -1.64 ± 0.14; (37 °C) -0.74 ± 0.13.
Turning to CGUCAGCAAUAUUACGCGAA, the “self-splicing fitness (ln)” value by setting is: (30 °C) -2.93 ± 0.21; (37 °C) -2.51 ± 0.19.
In the case of GCAAAGCAAUAUUACGAUUU, the “self-splicing fitness (ln)” value is -0.938 ± 0.06 (30 °C) and -0.449 ± 0.082 (37 °C).
On to CCCAAGCAAUAUUACGCCAU, for which the “self-splicing fitness (ln)” value runs as follows: (30 °C) -3.28 ± 0.22; (37 °C) -2.5 ± 0.23.
For the sequence ACACAGCAAUAUUACGACCG, the “self-splicing fitness (ln)” value by setting is: (30 °C) -0.326 ± 0.077; (37 °C) 0.342 ± 0.11.
With CUAGAGCAAUAUUACGACCC, the “self-splicing fitness (ln)” value (30 °C) was -1.62 ± 0.38.
On to GUGUAGCAAUAUUACGCUUU, for which the “self-splicing fitness (ln)” value is, setting by setting: (30 °C) -3.2 ± 0.21; (37 °C) -2.54 ± 0.22.
Taken in the same sequence, the figures for AAGAAGCAAUAUUACGCAGC were -3.17 ± 0.38 and -2.12 ± 0.22.
Regarding CAACAGCAAUAUUACGCGGG, the “self-splicing fitness (ln)” value by setting is: (30 °C) -2.63 ± 0.14; (37 °C) -2.12 ± 0.14.
Turning to GUAGAGCAAUAUUACGGACU, the “self-splicing fitness (ln)” value is, setting by setting: (30 °C) -1.4 ± 0.18; (37 °C) -0.459 ± 0.23.
As to CUUGAGCAAUAUUACGAGUU, the “self-splicing fitness (ln)” value was -4.15 ± 0.23 (30 °C) and -2.33 ± 0.17 (37 °C).
Consider UAGAAGCAAUAUUACGAAAA, for which the “self-splicing fitness (ln)” value was -2.69 ± 0.2 (30 °C) and -2.02 ± 0.17 (37 °C).
In the case of UAGCAGCAAUAUUACGGUCG, the “self-splicing fitness (ln)” value runs as follows: (30 °C) 0.0447 ± 0.066; (37 °C) 0.482 ± 0.094.
For the sequence CCCAAGCAAUAUUACGUUCA, the “self-splicing fitness (ln)” value (30 °C) was -3.21 ± 0.23 and the “self-splicing fitness (ln)” value (37 °C) was -2.39 ± 0.29.
For GACCAGCAAUAUUACGGAGA the same measures were -1.25 ± 0.078 and -0.461 ± 0.088.
